Measurements taken from US20080305099.

What was measured:
[1] = test system: ACTH (adrenocorticotropic hormone)
[2] = biological target: synthetic Aβ40 (UniProt P05067)
[3] = biological target: Aβ42 (UniProt P05067)
[4] = test system: Aβ (length not stated)
[5] = test system: amylin
[6] = test system: insulin β-chain

With “recombinant GCP-II protein purified from insect cells (Sf21)” the “MALDI-TOF molecular weight after reaction with GCP-II at 37° C. for 15 hours” value (“MALDI-TOF molecular weight” below) [1] was “characteristically not degraded by GCP-II”, the “MALDI-TOF of Aβ40 reacted with GCP-II protein at more than 25 ng/µL” value [2] was “only one peak was observed at 2,167 which corresponds to Aβ18” and the “MALDI-TOF of Aβ40 reacted with GCP-II protein for 20 hours” value [2] was “two new peaks were observed at 3915 and 2662 in Aβ reacted with 0.5 ng/µM of GCP-II”. For the same substance, the “MALDI-TOF of Aβ reacted with GCP-II inactivated by heating (boiled rGCP-II)” value [2] was “Aβ was not degraded by the inactivated GCP-II”, the “endogenous Aβ42 remaining (ELISA) in the medium of swAPP stable HEK293 colony #2 with 0, 0.5, 2.5 and 10 of rGCP-II” value [3] was “the level of endogenous Aβ42 was decreased” and the “Western blot (anti-Aβ antibody 6E10) of Aβ matured for 7 days after 20 hours with rGCP-II” value [4] was “Aβ in oligomer form (multimer) was reduced faster than Aβ monomer”. The “MALDI-TOF molecular weight” value [5] was “amylin showed two peaks at 1500 and 2000 after being reacted with GCP-II” and the “MALDI-TOF molecular weight” value [6] was “characteristically not degraded by GCP-II”.
